The labels stand for the following.
B1: Streptolysin O (SLO), wildtype, residues L78-K571, His-tagged (natural protein)
chain: LAPKEMPLESAEKEEKKSEDKKKSEEDHTEEINDKIYSLNYNELEVLAKNGETIENFVPKEGVKKADKFIVIERKKKNINTTPVDISIIDSVTDRTYPAALQLANKGFTENKPDAVVTKRNPQKIHIDLPGMGDKATVEVNDPTYANVSTAIDNLVNQWHDNYSGGNTLPARTQYTESMVYSKSQIEAALNVNSKILDGTLGIDFKSISKGEKKVMIAAYKQIFYTVSANLPNNPADVFDKSVTFKELQRKGVSNEAPPLFVSNVAYGRTVFVKLETSSKSNDVEAAFSAALKGTDVKTNGKYSDILENSSFTAVVLGGDAAEHNKVVTKDFDVIRNVIKDNATFSRKNPAYPISYTSVFLKNNKIAGVNNRTEYVETTSTEYTSGKINLSHQGAYVAQYEILWDEINYDDKGKEVITKRRWDNNWYSKTSPFSTVIPLGANSRNIRIMARECTGLAWEWWRKVIDERDVKLSKEINVNISGSTLSPYGSITYK

The data set “high-speed AFM” deals with the molecule itself. Briefly: high-speed AFM.
For data set [1], the target named is B1. The data set can be described thus: high-speed AFM. The following applies: both partners purified.

Experimental findings from PMC9884259 (The Journal of Membrane Biology, 2022) are described below.

Take B1: the binding result in the data set “high-speed AFM” is “binds”.

B2: SLO (C/A)-SS mutant ([change], [change], [change]), residues L78-K571, His-tagged (natural protein)
chain: LAPKEMPLESAEKEEKKSEDKKKSEEDHTEEINDKIYSLNYNELEVLAKNCETIENFVPKEGVKKADKFIVIERKKKNINTTPVDISIIDSVTDRTYPAALQLANKGFTENKPDAVVTKRNPQKIHIDLPGMGDKATVEVNDPTYANVSTAIDNLVNQWHDNYSGGNTLPARTQYTESMVYSKCQIEAALNVNSKILDGTLGIDFKSISKGEKKVMIAAYKQIFYTVSANLPNNPADVFDKSVTFKELQRKGVSNEAPPLFVSNVAYGRTVFVKLETSSKSNDVEAAFSAALKGTDVKTNGKYSDILENSSFTAVVLGGDAAEHNKVVTKDFDVIRNVIKDNATFSRKNPAYPISYTSVFLKNNKIAGVNNRTEYVETTSTEYTSGKINLSHQGAYVAQYEILWDEINYDDKGKEVITKRRWDNNWYSKTSPFSTVIPLGANSRNIRIMAREATGLAWEWWRKVIDERDVKLSKEINVNISGSTLSPYGSITYK
On to B2, for which the binding result (in data set [1]; in “high-speed AFM”) was “binds” each time.
